Source: PMC7729563, “Phospho-Mutant Activity Assays Provide Evidence for the Negative Regulation of Transcriptional Regulator PRE1 by Phosphorylation” (International Journal of Molecular Sciences, 2020)

T1: GST-BIN2 (BR-… 2, GSK3-like kinase) (Arabidopsis thaliana, UniProt Q39011 1-380)
T1 construct: GST-BIN2 is the only recombinant wild-type BIN2 described (methods 4.11); also called brassinosteroid-insensitive 2; source: E. coli, purified
T1 sequence (looked up): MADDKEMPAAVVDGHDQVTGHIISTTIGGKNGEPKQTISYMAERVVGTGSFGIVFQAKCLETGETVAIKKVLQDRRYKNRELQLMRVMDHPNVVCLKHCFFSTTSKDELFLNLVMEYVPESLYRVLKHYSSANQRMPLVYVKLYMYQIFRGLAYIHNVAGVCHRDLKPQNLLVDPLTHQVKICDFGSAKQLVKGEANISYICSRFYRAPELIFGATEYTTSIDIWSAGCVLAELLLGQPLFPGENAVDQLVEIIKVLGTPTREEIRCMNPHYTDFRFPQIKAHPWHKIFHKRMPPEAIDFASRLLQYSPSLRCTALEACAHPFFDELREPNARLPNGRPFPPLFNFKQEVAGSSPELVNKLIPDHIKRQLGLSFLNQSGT

T2: GST-IBH1 (Arabidopsis thaliana, UniProt Q9SKX1 1-156)
T2 construct: also called glutathione S-transferase (GST)-IBH1; source: bacteria, purified on glutathione beads; not shown: GST, N-terminal, kept
T2 sequence (looked up): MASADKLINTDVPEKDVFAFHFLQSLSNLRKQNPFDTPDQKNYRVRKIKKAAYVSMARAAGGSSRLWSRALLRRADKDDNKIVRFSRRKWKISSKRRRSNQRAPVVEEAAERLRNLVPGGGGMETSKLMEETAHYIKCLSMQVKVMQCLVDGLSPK

B1: MBP-PRE1 (natural protein, Arabidopsis thaliana, UniProt Q9FLE9 1-92, looked up)
chain: MSNRRSRQSSSAPRISDNQMIDLVSKLRQILPEIGQRRRSDKASASKVLQETCNYIRNLNREVDNLSERLSQLLESVDEDSPEAAVIRSLLM
notes: MBP-PRE1 is the only recombinant PRE1 described; source: E. coli, purified on amylose resin beads; not shown: MBP, N-terminal, kept
B2: MBP-PRE1^S67A (natural protein, Arabidopsis thaliana, UniProt Q9FLE9 1-92, looked up)
chain: MSNRRSRQSSSAPRISDNQMIDLVSKLRQILPEIGQRRRSDKASASKVLQETCNYIRNLNREVDNLAERLSQLLESVDEDSPEAAVIRSLLM
notes: source: E. coli, purified on amylose resin beads; not shown: MBP, N-terminal, kept

Experiments:
[1] = biological target: T1, GST-BIN2 (BR-… 2, GSK3-like kinase); test: far-Western, overlay or dot blot; overlay assay in vitro (Figure S5A); format not told; settings: both partners purified
GST-IBH1 = biological target: T2, GST-IBH1; test: pull-down; 1 μg GST-IBH1 on glutathione beads with 1 μg MBP fusion; 20 mM Tris-HCl pH 7.5, 100 mM NaCl, 1 mM EDTA; washes with 300 mM NaCl, 0.5% Triton X-100; anti-MBP immunoblot; settings: both partners purified

Binder	binding result [1]	binding result (GST-IBH1)
B1	binds	binds
B2	–	binds
